Publication PMC7835385
Each block holds one substance with its values, some of them ahead of it.

What was measured:
[1] = biological target: myosin-7a heavy chain (Drosophila), FLAG-tagged, co-expressed with light chains (Drosophila) (UniProt Q9V3Z6); test: co-purification (FLAG affinity chromatography) with SDS-PAGE densitometry; heavy chain and light chains co-expressed in Sf9; heavy chain captured by its FLAG tag; 150 mM NaCl, 2 mM ATP washes
[2] = biological target: GFP-myosin-7a holoenzyme (full-length, Drosophila) (Drosophila) (UniProt Q9V3Z6); test: BLI; Octet RED96; GFP-myosin-7a held by biotinylated GFP antibody on streptavidin sensors; 0-25 nM M7BP in solution; 150 mM NaCl, 2 mM MgCl2, 0.1 mM EGTA, 10 mM MOPS, 1% BSA, pH 7.2; 30 C; no actin
[3] = biological target: skeletal muscle actin, filamentous (F-actin) (rabbit) (UniProt P68135)
[4] = biological target: full-length myosin-7a holoenzyme (Drosophila), FLAG-tagged (Drosophila) (UniProt Q9V3Z6); test: single-molecule mass photometry; 20 nM myosin-7a or M7BP alone, or 20 nM M7BP with 10 nM myosin-7a; 150 mM NaCl, 2 mM MgCl2, 0.1 mM EGTA, 10 mM MOPS, pH 7.2; about 24 C; no actin
[5] = biological target: GFP-myosin-7a holoenzyme (full-length, Drosophila) (Drosophila) (UniProt Q9V3Z6); test: single-molecule TIRF motility assay; 20 nM myosin-7a with 20 nM M7BP on surface-immobilised phalloidin-labelled actin filaments; 150 mM KCl, 20 mM MOPS, 5 mM MgCl2, 0.1 mM EGTA, 2 mM ATP, pH 7.4; co-movement and fluorophore counting of moving puncta

- stoichiometric ratio of strongly bound calmodulin to ELC/Mlc-c on the heavy chain [1]: 4
Substance: Drosophila calmodulin (from UniProt P62152 1-149) (natural protein)

- Kd [2]: 6 nM
- decrease in actin gliding velocity over surface-bound myosin-7a after infusion of 500 nM M7BP, 150 mM KCl [3]: 50%
- stoichiometry N [4]: 1
Substance: M7BP (myosin-7a binding protein), protein isoform C of CG43340, full length (natural protein)

- stoichiometry N [5]: 1
Substance: M7BP-mCherry (natural protein)
